What was measured:
Assay in all cases: native gel or EMSA + SEC; native PAGE without SDS (7.5% separating gel, running buffer 0.05 M Tris, 0.038 M glycine, pH 8.3) against the standards TA-3HMU and TA-3FCR (dimers), catalase and TA-3N5M (tetramers); SEC on HiPrep 16/60 Sephacryl S-100 HR in 50 mM sodium phosphate pH 8.0; subunit size by SDS-PAGE
[1] = target: TA-9, putative transaminase from Burkholderia cepacia (Burkholderia cepacia)
[2] = target: TA-5, putative transaminase from Halomonas elongata (Halomonas elongata)
[3] = target: TA-10, amine transaminase from Burkholderia multivorans (Burkholderia multivorans)
[4] = target: the molecule itself

TA-9, putative transaminase from Burkholderia cepacia (enzyme)
stoichiometry N [1]: 4

TA-5, putative transaminase from Halomonas elongata (enzyme)
stoichiometry N [2]: 4

TA-10, amine transaminase from Burkholderia multivorans (enzyme)
stoichiometry N [3]: 4

B1: TA-1, taurine transaminase from Bilophila wadsworthia (enzyme, UniProt Q9APM5 1-456, looked up)
chain: MTYDKAELVALDKKYVWHHLTQHKNFEPAIYVKGEGMRITDIDGKTYLDAVSGGVWTVNVGYGRKEIVDAVAKQMMEMCYFANGIGNVPTIKFSEKLISKMPGMSRVYLSNSGSEANEKAFKIVRQIGQLKHGGKKTGILYRARDYHGTTIGTLSACGQFERKVQYGPFAPGFYEFPDCDVYRSKFGDCADLGVKMAKQLEEVILTVGPDELGAVIVEPMTAGGGILVPPAGYYETIREICDKYELLLIIDEVVCGLGRTGKWFGYQHFNVQPDIVTMAKGVASGYAPISCTVTTEKVFQDFVNDPADTDAYFRDISTFGGCTSGPAAALANIEIIERENLLENCTKMGDRLLEGLKGLMAKHPIIGDVRGKGLFAGIEIVKDRATKEPIAEAVANAMVGAAKQAGVLIGKTSRSFREFNNTLTLCPALIATEADIDEIVAGIDKAFTTVEQKFGL
notes: TA-1, taurine-pyruvate transaminase, Bilophila wadsworthia; codon-optimized gene subcloned with NdeI and BamHI into pET22b or pET28b; Purified and stored with PLP as cofactor; also called taurine-pyruvate transaminase; source: E. coli BL21, purified (Ni-NTA, desalting)
stoichiometry N [4]: 4

Source: PMC9418295, “Characterization of proteins from the 3N5M family reveals an operationally stable amine transaminase” (Applied Microbiology and Biotechnology, 2022)
